Among the data in patent publication US20050282743A1, “Molecular interactions in cells” (Arbor Vita Corporation, priority 2001, published 2005) are Classification values, retold here.

Test in all cases: G' assay
The target of test [1] is T1, GST-PDZK1 PDZ domain 3 (Homo sapiens (Human)), A8MUH7.
T1 chain: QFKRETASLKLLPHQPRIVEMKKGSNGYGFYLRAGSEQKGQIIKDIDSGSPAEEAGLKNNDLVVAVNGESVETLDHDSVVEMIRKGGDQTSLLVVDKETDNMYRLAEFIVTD

In test [2] the target is T2, GST-KIAA1719 PDZ domain 5 (Homo sapiens (Human)), Q9C0E4.
T2 chain: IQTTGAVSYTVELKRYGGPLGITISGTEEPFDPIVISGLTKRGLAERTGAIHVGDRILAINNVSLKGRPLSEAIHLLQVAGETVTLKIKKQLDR

Test [3] has as its target T3, GST-AIPC PDZ domain 4 (Homo sapiens (Human)), O15018.
T3 chain: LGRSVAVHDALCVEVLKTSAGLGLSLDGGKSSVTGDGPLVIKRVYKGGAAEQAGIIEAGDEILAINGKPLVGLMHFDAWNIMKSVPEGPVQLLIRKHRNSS

Test [4] addresses T4, GST-KIAA1415 PDZ domain 1 (Homo sapiens (Human)), Q8TCU6.
T4 chain: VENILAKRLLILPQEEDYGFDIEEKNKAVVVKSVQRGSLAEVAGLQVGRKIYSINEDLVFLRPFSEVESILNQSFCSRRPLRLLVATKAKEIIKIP

Test [5] addresses T5, GST-GRIP 1 PDZ domain 6 (Mus musculus (Mouse)), Q925T6.
T5 chain: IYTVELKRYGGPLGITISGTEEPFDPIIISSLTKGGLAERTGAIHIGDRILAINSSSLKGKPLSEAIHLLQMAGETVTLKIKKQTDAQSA

Test [6] deals with T6, GST-novel PDZ gene PDZ domain 2 (Homo sapiens (Human)), Q9H5P4.
T6 chain: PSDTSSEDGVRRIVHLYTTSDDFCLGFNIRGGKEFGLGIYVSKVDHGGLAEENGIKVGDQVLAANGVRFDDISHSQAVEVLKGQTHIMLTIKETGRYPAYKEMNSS

In test [7] the target is T7, GST-INADL PDZ domain 4 (Homo sapiens (Human)), Q8NI35.
T7 chain: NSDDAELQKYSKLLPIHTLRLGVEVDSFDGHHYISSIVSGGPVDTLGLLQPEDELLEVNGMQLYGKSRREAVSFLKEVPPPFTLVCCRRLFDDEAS

Test [8] concerns the target T8, GST-FLJ21687 PDZ domain 1 (Homo sapiens (Human)), Q9H6Y5.
T8 chain: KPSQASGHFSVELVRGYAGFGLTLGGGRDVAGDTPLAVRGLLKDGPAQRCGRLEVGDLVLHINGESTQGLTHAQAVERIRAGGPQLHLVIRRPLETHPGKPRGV

Test [9] has as its target T9, GST-KIAA1719 PDZ domain 4 (Homo sapiens (Human)), Q9C0E4.
T9 chain: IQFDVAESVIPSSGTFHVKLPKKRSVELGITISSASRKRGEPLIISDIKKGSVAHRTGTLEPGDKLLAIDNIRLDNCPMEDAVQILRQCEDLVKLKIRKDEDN

The target of test [10] is T10, GST-MUPP1 PDZ domain 9 (Homo sapiens (Human)), O75970.
T10 chain: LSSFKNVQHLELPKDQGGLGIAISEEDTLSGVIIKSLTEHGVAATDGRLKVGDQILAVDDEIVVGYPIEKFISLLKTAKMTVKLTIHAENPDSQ

Test [11] addresses T11, GST-MUPP1 PDZ domain 7 (Homo sapiens (Human)), O75970.
T11 chain: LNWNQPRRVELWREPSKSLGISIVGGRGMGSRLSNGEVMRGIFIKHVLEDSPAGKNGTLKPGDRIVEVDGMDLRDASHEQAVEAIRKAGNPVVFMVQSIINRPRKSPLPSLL

For test [12], the target named is T12, GST-GRIP 1 PDZ domain 7 (Homo sapiens (Human)), Q9Y3R0.
T12 chain: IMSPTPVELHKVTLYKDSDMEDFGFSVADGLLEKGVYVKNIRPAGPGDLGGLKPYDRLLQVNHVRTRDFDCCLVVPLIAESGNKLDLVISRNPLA

The target of test [13] is T13, GST-MUPP1 PDZ domain 12 (Homo sapiens (Human)), O75970.
T13 chain: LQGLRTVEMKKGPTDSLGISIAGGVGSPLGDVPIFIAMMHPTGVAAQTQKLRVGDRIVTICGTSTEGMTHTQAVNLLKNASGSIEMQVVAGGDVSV

For test [14], the target named is T14, GST-KIAA1719 PDZ domain 6 (Homo sapiens (Human)), Q9C0E4.
T14 chain: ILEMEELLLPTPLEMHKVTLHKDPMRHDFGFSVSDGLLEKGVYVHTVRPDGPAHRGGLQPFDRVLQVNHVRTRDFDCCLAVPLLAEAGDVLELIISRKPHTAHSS

Test [15] deals with T15, GST-KIAA0303 PDZ domain 1 (Homo sapiens (Human)), O15021.
T15 chain: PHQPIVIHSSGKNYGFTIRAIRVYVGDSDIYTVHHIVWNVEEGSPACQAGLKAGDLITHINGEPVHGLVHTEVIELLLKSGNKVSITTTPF

Test [16] concerns the target T16, GST-AF6 PDZ domain 1 (Homo sapiens (Human)), P55196.
T16 chain: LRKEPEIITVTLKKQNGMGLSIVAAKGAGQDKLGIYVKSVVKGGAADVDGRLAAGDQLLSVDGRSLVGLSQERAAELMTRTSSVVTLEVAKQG

In test [17] the target is T17, GST-rat SHANK 3 PDZ domain 1 (rat), Q9JLU4.
T17 chain: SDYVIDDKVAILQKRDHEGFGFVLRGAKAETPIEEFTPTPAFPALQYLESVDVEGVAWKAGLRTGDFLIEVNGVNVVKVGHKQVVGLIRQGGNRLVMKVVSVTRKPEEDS

For test [18], the target named is T18, GST-ENIGMA PDZ domain 1 (Homo sapiens (Human)), Q9NR12.
T18 chain: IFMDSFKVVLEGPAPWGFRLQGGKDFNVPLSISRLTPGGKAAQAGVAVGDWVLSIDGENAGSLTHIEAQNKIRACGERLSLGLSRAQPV

For test [19], the target named is GST-Atrophin-1 Interacting Protein PDZ domain 2 (Homo sapiens (Human)), Q86UL8.
Note: key of the grades not given here.

Chain of GST-Atrophin-1 Interacting Protein PDZ domain 2 (Homo sapiens (Human)), Q86UL8 (Q86UL8 other isoform, or with tags, fused parts or gaps): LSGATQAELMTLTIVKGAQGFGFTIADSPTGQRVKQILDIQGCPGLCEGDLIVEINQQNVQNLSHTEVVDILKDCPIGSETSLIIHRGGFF

Consider ILNSIQVMRAQMNQIQSVEV (modifications not checked) [ephrin B2], for which the Classification worked out at 1 A450 class in test [1]; 4 A450 class in test [2]; 1 A450 class in test [3]; 1 A450 class in test [4]; 3 A450 class in test [5].
As for PIPAGGCTFSGIFPTLTSPL (modifications not checked) [KIA 1481], the Classification in [6] turned out to be 1 A450 class.
Take HDFRRAFKKILARGDRKRIV (modifications not checked) [alpha-2A Adrenergic receptor]: the Classification was determined as 1 A450 class in test [7], 1 A450 class in test [8] and 3 A450 class in [9].
KTMPAAMYRLLTAQEQPVYI (modifications not checked) [MINT-1]: the Classification in test [10] and in test [11] was 3 A450 class throughout.
As to ELLQFCRTPNPALKNGQYWV (modifications not checked) [CSPG4 (chondroitin sulfae proteoglycan 4, melanoma-associated)], the Classification in test [12] turned out to be 5 A450 class; in test [13] it was 1 A450 class; in test [14] it was 5 A450 class; in test [15], 1 A450 class; in [16], 5 A450 class.
As to VPGALDYAAFSSALYGESDL (modifications not checked) [a-actinin 2], the Classification stood at 1 A450 class in test [17] and 5 A450 class in test [18].
Consider QISPGGLEPPSEKHFRETEV (modifications not checked) [TAX], for which the Classification in test [19] was determined as 1 A450 class.
